Measured values published in article PMC8822709 (Journal of Biomedical Science, 2022).

Tests used:
[1] = biological target: T1, ENO1 (Alpha-enolase), endogenous in RD cells (Homo sapiens (RD cells), UniProt P06733); assay: affinity purification with mass spectrometry; details: one partner purified
T1 construct: also called α-enolase

[2] = biological target: T2, ENO1 recombinant protein (α-enolase) (Homo sapiens, UniProt P06733); assay: ELISA; indirect ELISA; recombinant protein (5 μg/mL) coated in carbonate-bicarbonate pH 9.6, 07-IgG1 diluted and added at 37 °C for 1 h, HRP goat anti-human IgG, OD 450 nm; details: both partners purified
T2 construct: also called hENO1; rhENO1; source: recombinant protein

PEG-precipitated EV-A71 = biological target: T3, PEG-precipitated EV-A71 (Enterovirus A71, stock strain …, UniProt Q9DY01); assay: ELISA; details: both partners purified
T3 construct: also called EV-A71 protein; EV-A71 capsid proteins; source: PEG-precipitated EV-A71 (virus propagated in RD cells)

T1 sequence (P06733 whole entry): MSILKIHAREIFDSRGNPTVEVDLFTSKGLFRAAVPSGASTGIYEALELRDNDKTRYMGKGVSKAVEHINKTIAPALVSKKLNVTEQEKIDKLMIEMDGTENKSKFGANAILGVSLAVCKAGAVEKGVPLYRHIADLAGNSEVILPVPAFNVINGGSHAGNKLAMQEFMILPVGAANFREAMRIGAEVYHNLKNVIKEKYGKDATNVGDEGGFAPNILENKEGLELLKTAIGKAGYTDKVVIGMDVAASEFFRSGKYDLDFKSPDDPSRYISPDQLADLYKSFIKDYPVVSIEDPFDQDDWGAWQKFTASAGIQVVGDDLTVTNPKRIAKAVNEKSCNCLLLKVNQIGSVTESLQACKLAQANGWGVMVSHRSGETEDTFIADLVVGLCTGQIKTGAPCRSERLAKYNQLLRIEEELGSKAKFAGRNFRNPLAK
T2 sequence (P06733 whole entry): as above

B1: 07-human IgG1 antibody (antibody, V domains shown)
VH: EVQLLESGAVVKKPGESLKISCTGSGYVFRDYWVGWVRQMPGKGLEWLGMIYPDEFDIRYSPSFQGQVTISADKSIDTAYLQLSSLEASDTGIYYCARHGNTGCGGTMCYKSYLYYGMDVWGQGTTVTVS
VL: ELVLTQSPSVSVSPGQTASITCSGDKLGDKYACWYQQKPGQSPVLVIYQDNKRPSGIPERFSGSNSGNTATLTISGTRAMDEADYYCQAWDSSTCYVFGTGTKLTVL
notes: also called 07-IgG1; clone 07 recombinant antibody; source: ExpiCHO, co-transfected (pcDNA3.4 heavy and light chain), purified by protein A resin
- binding result [1]: binds
- binding result [2]: binds
- binding result (PEG-precipitated EV-A71): no binding
